Experimental data reported in the supplement of paper PMC9112550, “Optimization of the antimicrobial peptide Bac7 by deep mutational scanning” (BMC Biology, 2022).

test system: Escherichia coli TOP10; test: shrunken log2 fold change of peptide-encoding DNA abundance (4.5 h post-induction vs induction); higher = less antimicrobial activity (less host growth inhibition); conditions: time post-induction: 4.5 h; library: site-saturation at positions 5, 18, 19, 20
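Also: peptides expressed intracellularly from a pBAD plasmid library in pooled LB shake-flask culture, induced with 0.3% L-arabinose, DNA abundance read by NGS, three biological replicates, DESeq2 with apeglm shrinkage.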

| Sequence | shrunken log2 fold change |
| --- | --- |
| RRIRWRPPRLPRPRPRPCRYPRP | -0.129 |
| RRIRLRPPRLPRPRPRPMDEPRP | -0.119 |
| RRIRCRPPRLPRPRPRPLEDPRP | 0.0306 |
| RRIRSRPPRLPRPRPRPDFWPRP | 0.506 |
| RRIRSRPPRLPRPRPRPYKMPRP | -0.425 |
| RRIRIRPPRLPRPRPRPQDAPRP | -0.449 |
| RRIRKRPPRLPRPRPRPNGDPRP | -0.024 |
| RRIRVRPPRLPRPRPRPIWIPRP | 0.0696 |
| RRIRMRPPRLPRPRPRPYHFPRP | -0.16 |
| RRIRWRPPRLPRPRPRPCKKPRP | 0.0155 |
| RRIRERPPRLPRPRPRPYLEPRP | -0.271 |
| RRIRLRPPRLPRPRPRPYEIPRP | -0.012 |
| RRIRSRPPRLPRPRPRPANNPRP | -0.367 |
| RRIRLRPPRLPRPRPRPERLPRP | 0.466 |
| RRIRNRPPRLPRPRPRPNALPRP | -0.134 |
| RRIRLRPPRLPRPRPRPKTYPRP | -0.511 |
| RRIRGRPPRLPRPRPRPDCMPRP | 0.909 |
| RRIRCRPPRLPRPRPRPQVVPRP | -0.266 |
| RRIRVRPPRLPRPRPRPAVMPRP | -0.0705 |
| RRIRARPPRLPRPRPRPMKHPRP | -0.00244 |
| RRIRWRPPRLPRPRPRPAVSPRP | 0.127 |
| RRIRRRPPRLPRPRPRPTWWPRP | 0.57 |
| RRIRFRPPRLPRPRPRPLRQPRP | 0.0138 |
| RRIRKRPPRLPRPRPRPEANPRP | 0.0281 |
| RRIRQRPPRLPRPRPRPFLMPRP | -0.421 |

| Sequence | shrunken log2 fold change |
| --- | --- |
| RRIRRRPPRLPRPRPRPMCTPRP | 0.459 |
| RRIRFRPPRLPRPRPRPKNWPRP | 0.31 |
| RRIRHRPPRLPRPRPRPWEAPRP | -0.0553 |
| RRIRMRPPRLPRPRPRPKQSPRP | 0.757 |
| RRIRVRPPRLPRPRPRPSWKPRP | -0.0781 |
| RRIRDRPPRLPRPRPRPVNHPRP | -0.514 |
| RRIRCRPPRLPRPRPRPFWMPRP | -0.176 |
| RRIRWRPPRLPRPRPRPFPAPRP | 0.342 |
| RRIRYRPPRLPRPRPRPDACPRP | -0.045 |
| RRIRNRPPRLPRPRPRPVWVPRP | 0.0909 |
| RRIRSRPPRLPRPRPRPPVKPRP | -0.136 |
| RRIRGRPPRLPRPRPRPQFEPRP | 0.156 |
| RRIRDRPPRLPRPRPRPFAHPRP | 0.228 |
| RRIRSRPPRLPRPRPRPIKPPRP | 0.0213 |
| RRIRIRPPRLPRPRPRPMNIPRP | -0.0512 |
| RRIRRRPPRLPRPRPRPDGHPRP | -0.0521 |
| RRIRWRPPRLPRPRPRPDVRPRP | -0.0136 |
| RRIRARPPRLPRPRPRPLPEPRP | 0.542 |
| RRIRPRPPRLPRPRPRPSCWPRP | 0.36 |
| RRIRVRPPRLPRPRPRPKTVPRP | -0.012 |
| RRIRGRPPRLPRPRPRPMSLPRP | -0.0288 |
| RRIRKRPPRLPRPRPRPTFEPRP | 0.312 |
| RRIRRRPPRLPRPRPRPPCYPRP | 0.473 |
| RRIRQRPPRLPRPRPRPRHTPRP | -0.147 |
| RRIRLRPPRLPRPRPRPSNKPRP | -0.646 |

| Sequence | shrunken log2 fold change |
| --- | --- |
| RRIRSRPPRLPRPRPRPNWLPRP | 0.18 |
| RRIRNRPPRLPRPRPRPYWAPRP | -0.0304 |
| RRIRRRPPRLPRPRPRPAQPPRP | 0.958 |
| RRIRSRPPRLPRPRPRPREEPRP | 0.369 |
| RRIRRRPPRLPRPRPRPDPNPRP | 0.0237 |
| RRIRWRPPRLPRPRPRPASHPRP | 0.187 |
| RRIRSRPPRLPRPRPRPIRSPRP | 0.0127 |
| RRIRIRPPRLPRPRPRPRSRPRP | 0.0781 |
| RRIRQRPPRLPRPRPRPGFPPRP | -0.0539 |
| RRIRARPPRLPRPRPRPCAQPRP | 0.483 |
| RRIRWRPPRLPRPRPRPCCGPRP | 0.293 |
| RRIRFRPPRLPRPRPRPKPTPRP | 0.879 |
| RRIRFRPPRLPRPRPRPFPEPRP | -0.363 |
| RRIRNRPPRLPRPRPRPYMAPRP | -0.0692 |
| RRIRNRPPRLPRPRPRPGATPRP | 0.124 |
| RRIRNRPPRLPRPRPRPGSAPRP | 0.025 |
| RRIRGRPPRLPRPRPRPASAPRP | 0.818 |
| RRIRARPPRLPRPRPRPDTKPRP | 0.0293 |
| RRIRGRPPRLPRPRPRPYWPPRP | 0.0961 |
| RRIRNRPPRLPRPRPRPKDVPRP | -0.0116 |
| RRIRDRPPRLPRPRPRPIYFPRP | -0.839 |
| RRIRGRPPRLPRPRPRPARWPRP | 0.998 |
| RRIRGRPPRLPRPRPRPLDGPRP | 0.342 |
| RRIRSRPPRLPRPRPRPWQVPRP | 0.00514 |
| RRIRHRPPRLPRPRPRPEHWPRP | 0.237 |

| Sequence | shrunken log2 fold change |
| --- | --- |
| RRIRQRPPRLPRPRPRPVNGPRP | -0.0109 |
| RRIRERPPRLPRPRPRPPRIPRP | -0.453 |
| RRIRNRPPRLPRPRPRPIGCPRP | 0.0526 |
| RRIRSRPPRLPRPRPRPIHQPRP | -0.114 |
| RRIRWRPPRLPRPRPRPSRCPRP | 0.0613 |
| RRIRPRPPRLPRPRPRPVPIPRP | 0.0844 |
| RRIRSRPPRLPRPRPRPRRPPRP | 0.364 |
| RRIRMRPPRLPRPRPRPWVAPRP | 0.109 |
| RRIRVRPPRLPRPRPRPPFPPRP | 0.369 |
| RRIRIRPPRLPRPRPRPFPIPRP | 0.0234 |
| RRIRQRPPRLPRPRPRPGSEPRP | 0.0985 |
| RRIRMRPPRLPRPRPRPKNHPRP | 0.412 |
| RRIRFRPPRLPRPRPRPKSVPRP | 0.0124 |
| RRIRIRPPRLPRPRPRPTQWPRP | -0.136 |
| RRIRPRPPRLPRPRPRPPRQPRP | 0.334 |
| RRIRVRPPRLPRPRPRPCFDPRP | -0.121 |
| RRIRGRPPRLPRPRPRPSNFPRP | 0.0228 |
| RRIRNRPPRLPRPRPRPEPQPRP | 1 |
| RRIRGRPPRLPRPRPRPSTRPRP | 0.114 |
| RRIRDRPPRLPRPRPRPEREPRP | -0.0248 |
| RRIRQRPPRLPRPRPRPKMPPRP | -0.0283 |
| RRIRTRPPRLPRPRPRPNKGPRP | -0.28 |
| RRIRHRPPRLPRPRPRPGNQPRP | 0.0401 |
| RRIRERPPRLPRPRPRPFKEPRP | -0.346 |
| RRIRRRPPRLPRPRPRPVCKPRP | -0.012 |

| Sequence | shrunken log2 fold change |
| --- | --- |
| RRIRCRPPRLPRPRPRPLPIPRP | -0.0776 |
| RRIRERPPRLPRPRPRPEFLPRP | 0.26 |
| RRIRTRPPRLPRPRPRPRVDPRP | 0.181 |
| RRIRPRPPRLPRPRPRPTGQPRP | 0.152 |
| RRIRWRPPRLPRPRPRPAHNPRP | 0.352 |
| RRIRERPPRLPRPRPRPYHKPRP | -0.804 |
| RRIRKRPPRLPRPRPRPHKPPRP | -0.0045 |
| RRIRCRPPRLPRPRPRPDNAPRP | -0.164 |
| RRIRTRPPRLPRPRPRPHEDPRP | -0.183 |
| RRIRNRPPRLPRPRPRPEIQPRP | -0.0724 |
| RRIRLRPPRLPRPRPRPPIGPRP | 0.142 |
| RRIRNRPPRLPRPRPRPFWDPRP | -0.0775 |
| RRIRRRPPRLPRPRPRPLHDPRP | 0.359 |
| RRIRYRPPRLPRPRPRPHTYPRP | -0.189 |
| RRIRKRPPRLPRPRPRPHPAPRP | 0.429 |
| RRIRTRPPRLPRPRPRPIFSPRP | -0.393 |
| RRIRKRPPRLPRPRPRPYNIPRP | -0.133 |
| RRIRGRPPRLPRPRPRPIVHPRP | 0.342 |
| RRIRWRPPRLPRPRPRPLDMPRP | 0.14 |
| RRIRHRPPRLPRPRPRPKDRPRP | 0.00902 |
| RRIRWRPPRLPRPRPRPFIDPRP | -0.046 |
| RRIRNRPPRLPRPRPRPTCYPRP | -0.226 |
| RRIRIRPPRLPRPRPRPLAMPRP | -0.159 |
| RRIRKRPPRLPRPRPRPKLEPRP | -0.0306 |
| RRIRSRPPRLPRPRPRPSAIPRP | 0.0168 |
